From patent US20150344570A1 (published 2015) come the findings set out here.

The target of assay [1] is T1, FcγRIIIa (human, UniProt P08637 17-208).
T1 construct: extracellular domain; Soluble extracellular domain with a C-terminal His tag; also called FcgRIIIa; 3a; not shown: His tag attached to the C terminus
Description: SPR; He/Con_3a (FcγRIIIa) divided by He/Con_2b (FcγRIIb). Background: Surface plasmon resonance follows binding to a sensor surface in real time, without labels.

A further assay addresses T2, FcγRIIb (human, UniProt P31994 43-217).
T2 construct: extracellular domain; Soluble extracellular domain with a C-terminal His tag, expressed in FreeStyle293 cells; also called FcgRIIb; 2b; not shown: His tag attached to the C terminus
T2 sequence (looked up): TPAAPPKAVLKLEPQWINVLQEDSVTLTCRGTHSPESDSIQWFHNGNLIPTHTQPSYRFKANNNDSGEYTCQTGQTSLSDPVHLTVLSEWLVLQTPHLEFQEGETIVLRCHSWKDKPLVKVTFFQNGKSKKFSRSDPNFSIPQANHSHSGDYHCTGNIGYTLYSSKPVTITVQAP
Description: SPR (Biacore), antibody captured on chip, FcγR as analyte.

The target of assay [2] is T1, FcγRIIIa. The assay is described as above.

T1 sequence (P08637 17-208): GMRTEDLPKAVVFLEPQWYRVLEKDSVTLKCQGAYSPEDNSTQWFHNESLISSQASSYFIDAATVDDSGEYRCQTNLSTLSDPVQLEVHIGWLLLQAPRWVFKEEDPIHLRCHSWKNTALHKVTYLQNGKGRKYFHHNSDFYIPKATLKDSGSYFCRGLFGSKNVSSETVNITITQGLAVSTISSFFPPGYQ

B1: GpH7-A5/GpH7-B3 variant P238_14T/GpL16-k0 (antibody, human IgG1, kappa)
heavy 1: not shown
heavy 2: not shown
light: DIVMTQSPLSLPVTPGEPASISCQASESLVHSNRNTYLHWYLQKPGQSPQLLIYKVSNRFSGVPDRFSGSGSGTDFTLKISRVEAEDVGVYYCSQNTHVPPTFGQGTKVEIERTVAAPSVFIFPPSDEQLKSGTASVVCLLNNFYPREAKVQWKVDNALQSGNSQESVTEQDSKDSTYSLSSTLTLSKADYEKHKVYACEVTHQGLSSPVTKSFNRGEC
notes: Heterodimerized anti-glypican-3 IgG1; the mutation is in the GpH7-B3 chain only; also called He Ab
As to B1, the “He_3a/2b (IIIa/IIb)” value in the assay with FcγRIIIa [1] stood at 0.55 ratio. For the same molecule, the He/Con_2b with FcγRIIb is 50.7 relative binding, GpH7-A5/GpH7-B3/GpL16-k0 = 100. In addition, the He/Con_3a with FcγRIIIa [2] is 28 relative binding, GpH7-A5/GpH7-B3/GpL16-k0 = 100.

B2: GpH7-A5/GpH7-B3 variant S239_03V/GpL16-k0 (antibody, human IgG1, kappa)
heavy 1: not shown
heavy 2: not shown
light: DIVMTQSPLSLPVTPGEPASISCQASESLVHSNRNTYLHWYLQKPGQSPQLLIYKVSNRFSGVPDRFSGSGSGTDFTLKISRVEAEDVGVYYCSQNTHVPPTFGQGTKVEIERTVAAPSVFIFPPSDEQLKSGTASVVCLLNNFYPREAKVQWKVDNALQSGNSQESVTEQDSKDSTYSLSSTLTLSKADYEKHKVYACEVTHQGLSSPVTKSFNRGEC
notes: as for B1
As to B2, in the assay with FcγRIIIa [1], the “He_3a/2b (IIIa/IIb)” value turned out to be 0.71 ratio. The He/Con_2b with FcγRIIb was 108 relative binding, GpH7-A5/GpH7-B3/GpL16-k0 = 100. In the assay with FcγRIIIa [2], the He/Con_3a is 76.6 relative binding, GpH7-A5/GpH7-B3/GpL16-k0 = 100.

B3: GpH7-A5/GpH7-B3 variant P238_09D/GpL16-k0 (antibody, human IgG1, kappa)
heavy 1: not shown
heavy 2: not shown
light: DIVMTQSPLSLPVTPGEPASISCQASESLVHSNRNTYLHWYLQKPGQSPQLLIYKVSNRFSGVPDRFSGSGSGTDFTLKISRVEAEDVGVYYCSQNTHVPPTFGQGTKVEIERTVAAPSVFIFPPSDEQLKSGTASVVCLLNNFYPREAKVQWKVDNALQSGNSQESVTEQDSKDSTYSLSSTLTLSKADYEKHKVYACEVTHQGLSSPVTKSFNRGEC
notes: as for B1
As for B3, in the assay with FcγRIIIa [1], the “He_3a/2b (IIIa/IIb)” value was determined as 0.48 ratio. Further, the He/Con_2b with FcγRIIb was 221 relative binding, GpH7-A5/GpH7-B3/GpL16-k0 = 100. For the same molecule, the He/Con_3a with FcγRIIIa [2] was 106 relative binding, GpH7-A5/GpH7-B3/GpL16-k0 = 100.

B4: GpH7-A5/GpH7-B3 variant P238_13S/GpL16-k0 (antibody, human IgG1, kappa)
heavy 1: not shown
heavy 2: not shown
light: DIVMTQSPLSLPVTPGEPASISCQASESLVHSNRNTYLHWYLQKPGQSPQLLIYKVSNRFSGVPDRFSGSGSGTDFTLKISRVEAEDVGVYYCSQNTHVPPTFGQGTKVEIERTVAAPSVFIFPPSDEQLKSGTASVVCLLNNFYPREAKVQWKVDNALQSGNSQESVTEQDSKDSTYSLSSTLTLSKADYEKHKVYACEVTHQGLSSPVTKSFNRGEC
notes: as for B1
With B4, in the assay with FcγRIIIa [1], the “He_3a/2b (IIIa/IIb)” value amounted to 0.64 ratio. In addition, the He/Con_2b with FcγRIIb is 70.4 relative binding, GpH7-A5/GpH7-B3/GpL16-k0 = 100. Also, in the assay with FcγRIIIa [2], the He/Con_3a was 44.9 relative binding, GpH7-A5/GpH7-B3/GpL16-k0 = 100.

B5: GpH7-A5/GpH7-B3 variant P238_15Y/GpL16-k0 (antibody, human IgG1, kappa)
heavy 1: not shown
heavy 2: not shown
light: DIVMTQSPLSLPVTPGEPASISCQASESLVHSNRNTYLHWYLQKPGQSPQLLIYKVSNRFSGVPDRFSGSGSGTDFTLKISRVEAEDVGVYYCSQNTHVPPTFGQGTKVEIERTVAAPSVFIFPPSDEQLKSGTASVVCLLNNFYPREAKVQWKVDNALQSGNSQESVTEQDSKDSTYSLSSTLTLSKADYEKHKVYACEVTHQGLSSPVTKSFNRGEC
notes: as for B1
In the case of B5, in the assay with FcγRIIIa [1], the “He_3a/2b (IIIa/IIb)” value was determined as 0.3 ratio. In addition, in the assay with FcγRIIb, the He/Con_2b was 218 relative binding, GpH7-A5/GpH7-B3/GpL16-k0 = 100. Further, the He/Con_3a in the assay with FcγRIIIa [2] was 64.5 relative binding, GpH7-A5/GpH7-B3/GpL16-k0 = 100.

B6: GpH7-A5/GpH7-B3 variant P238_20W/GpL16-k0 (antibody, human IgG1, kappa)
heavy 1: not shown
heavy 2: not shown
light: DIVMTQSPLSLPVTPGEPASISCQASESLVHSNRNTYLHWYLQKPGQSPQLLIYKVSNRFSGVPDRFSGSGSGTDFTLKISRVEAEDVGVYYCSQNTHVPPTFGQGTKVEIERTVAAPSVFIFPPSDEQLKSGTASVVCLLNNFYPREAKVQWKVDNALQSGNSQESVTEQDSKDSTYSLSSTLTLSKADYEKHKVYACEVTHQGLSSPVTKSFNRGEC
notes: as for B1
For the molecule B6, the “He_3a/2b (IIIa/IIb)” value with FcγRIIIa [1] came out at 0.4 ratio. Besides, the He/Con_2b in the assay with FcγRIIb was 123 relative binding, GpH7-A5/GpH7-B3/GpL16-k0 = 100. The He/Con_3a with FcγRIIIa [2] is 49.7 relative binding, GpH7-A5/GpH7-B3/GpL16-k0 = 100.

B7: GpH7-A5/GpH7-B3 variant P238_16H/GpL16-k0 (antibody, human IgG1, kappa)
heavy 1: not shown
heavy 2: not shown
light: DIVMTQSPLSLPVTPGEPASISCQASESLVHSNRNTYLHWYLQKPGQSPQLLIYKVSNRFSGVPDRFSGSGSGTDFTLKISRVEAEDVGVYYCSQNTHVPPTFGQGTKVEIERTVAAPSVFIFPPSDEQLKSGTASVVCLLNNFYPREAKVQWKVDNALQSGNSQESVTEQDSKDSTYSLSSTLTLSKADYEKHKVYACEVTHQGLSSPVTKSFNRGEC
notes: as for B1
On to B7, for which the “He_3a/2b (IIIa/IIb)” value with FcγRIIIa [1] amounted to 0.27 ratio. The He/Con_2b with FcγRIIb is 115 relative binding, GpH7-A5/GpH7-B3/GpL16-k0 = 100. For the same molecule, the He/Con_3a in the assay with FcγRIIIa [2] is 30.7 relative binding, GpH7-A5/GpH7-B3/GpL16-k0 = 100.

B8: GpH7-A5/GpH7-B3 variant P238_08L/GpL16-k0 (antibody, human IgG1, kappa)
heavy 1: not shown
heavy 2: not shown
light: DIVMTQSPLSLPVTPGEPASISCQASESLVHSNRNTYLHWYLQKPGQSPQLLIYKVSNRFSGVPDRFSGSGSGTDFTLKISRVEAEDVGVYYCSQNTHVPPTFGQGTKVEIERTVAAPSVFIFPPSDEQLKSGTASVVCLLNNFYPREAKVQWKVDNALQSGNSQESVTEQDSKDSTYSLSSTLTLSKADYEKHKVYACEVTHQGLSSPVTKSFNRGEC
notes: as for B1
On to B8, for which the “He_3a/2b (IIIa/IIb)” value in the assay with FcγRIIIa [1] stood at 0.37 ratio. For the same molecule, the He/Con_2b with FcγRIIb was 204 relative binding, GpH7-A5/GpH7-B3/GpL16-k0 = 100. Also, the He/Con_3a in the assay with FcγRIIIa [2] was 75.5 relative binding, GpH7-A5/GpH7-B3/GpL16-k0 = 100.

B9: GpH7-A5/GpH7-B3 variant P238_12R/GpL16-k0 (antibody, human IgG1, kappa)
heavy 1: not shown
heavy 2: not shown
light: DIVMTQSPLSLPVTPGEPASISCQASESLVHSNRNTYLHWYLQKPGQSPQLLIYKVSNRFSGVPDRFSGSGSGTDFTLKISRVEAEDVGVYYCSQNTHVPPTFGQGTKVEIERTVAAPSVFIFPPSDEQLKSGTASVVCLLNNFYPREAKVQWKVDNALQSGNSQESVTEQDSKDSTYSLSSTLTLSKADYEKHKVYACEVTHQGLSSPVTKSFNRGEC
notes: as for B1
With B9, in the assay with FcγRIIIa [1], the “He_3a/2b (IIIa/IIb)” value turned out to be 0.24 ratio. Besides, the He/Con_2b in the assay with FcγRIIb is 51.4 relative binding, GpH7-A5/GpH7-B3/GpL16-k0 = 100. For the same molecule, the He/Con_3a with FcγRIIIa [2] was 12.2 relative binding, GpH7-A5/GpH7-B3/GpL16-k0 = 100.
